According to patent US20210355194A1 (TWIST BIOSCIENCE, published 2021):

B1: variant 6-44 (Fc fusion)
VHH: EVQLVESGGGLVQPGGSLRLSCAASGGTFGVYHMGWFRQAPGKEREFIGRITWTDGSTYYADSVKGRFTISADNSKNTAYLQMNSLKPEDTAVYYCFGLLEVYDMTFDYWGQGTLVTVSS
B2: variant 6-42 (Fc fusion)
VHH: EVQLVESGGGLVQPGGSLRLSCAASGDTYGSYWMGWFRQAPGKEREFVAVITSGGSTNYADSVKGRFTISADNSKNTAYLQMNSLKPEDTAVYYCTHVQNSYYYAMDVWGQGTLVTVSS
B3: variant 6-39 (Fc fusion)
VHH: EVQLVESGGGLVQPGGSLRLSCAASGFTFSPSWMGWFRQAPGKEREFVAAISWSGGSTAYADSVKGRFTISADNSKNTAYLQMNSLKPEDTAVYYCHGLGEGDPYGDYEGYFDLWGQGTLVTVSS
B4: variant 6-26 (Fc fusion)
VHH: EVQLVESGGGLVQPGGSLRLSCAASGDTFSTSWMGWFRQAPGKEREFVATINTGGGTNYADSVKGRFTISADNSKNTAYLQMNSLKPEDTAVYYCARVTTSFDYWGQGTLVTVSS
B5: variant 6-77 (Fc fusion)
VHH: EVQLVESGGGLVQPGGSLRLSCAASGFTFDRSWMGWFRQAPGKEREFVAAVTEGGTTSYADSVKGRFTISADNSKNTAYLQMNSLKPEDTAVYYCARADYDFDYWGQGTLVTVSS
B6: variant 6-30 (Fc fusion)
VHH: EVQLVESGGGLVQPGGSLRLSCAASGFAFGDSWMGWFRQAPGKEREFVATINWSGVTAYADSVKGRFTISADNSKNTAYLQMNSLKPEDTAVYYCARADGYFDYWGQGTLVTVSS
B7: variant 6-6 (Fc fusion)
VHH: EVQLVESGGGLVQPGGSLRLSCAASGTTLDYYAMGWFRQAPGKERELVAAISWSGGSTAYADSVKGRFTISADNSKNTAYLQMNSLKPEDTAVYYCAREDYYDSSGYSWGQGTLVTVSS
B8: variant 6-43 (Fc fusion)
VHH: EVQLVESGGGLVQPGGSLRLSCAASGRTFSSYAMMGWFRQAPGKEREFVASVNWDASQINYADSVKGRFTISADNSKNTAYLQMNSLKPEDTAVYYCTTLGAVYFDSSGYHDYFDYWGQGTLVTVSS
B9: variant 5-1 (Fc fusion)
VHH: EVQLVESGGGLVQPGGSLRLSCAASGGTFSSIGMGWFRQAPGKEREFVAAISWDGGATAYADSVKGRFTISADNSKNTAYLQMNSLKPEDTAVYYCAKEDVGKPFDWGQGTLVTVSS
B10: variant 6-82 (Fc fusion)
VHH: EVQLVESGGGLVQPGGSLRLSCAASGSSLDAYGMGWFRQAPGKEREFVAAISWGGGSIYYADSVKGRFTISADNSKNTAYLQMNSLKPEDTAVYYCARLSQGMVALDYWGQGTLVTVSS
B11: variant 5-20 (Fc fusion)
VHH: EVQLVESGGGLVQPGGSLRLSCAASGRTIVPYTMGWFRQAPGKERELVAAISPSAFTEYADSVKGRFTISADNSKNTAYLQMNSLKPEDTAVYYCAARRWGYDWGQGTLVTVSS
B12: variant 6-46 (Fc fusion)
VHH: EVQLVESGGGLVQPGGSLRLSCAASGLTFSAMGWFRQAPGKEREFVALIRRDGSTIYADSVKGRFTISADNSKNTAYLQMNSLKPEDTAVYYCAALGILFGYDAFDIWGQGTLVTVSS
B13: variant 5-63 (Fc fusion)
VHH: EVQLVESGGGLVQPGGSLRLSCAASGFSLDYYDMGWFRQAPGKEREFVAALGWSGGSTDYADSVKGRFTISADNSKNTAYLQMNSLKPEDTAVYYCAAGNGGRYGIVERWGQGTLVTVSS
B14: variant 6-78 (Fc fusion)
VHH: EVQLVESGGGLVQPGGSLRLSCAASGRTYDAMGWFRQAPGKEREFVASVTSGGYTHYADSVKGRFTISADNSKNTAYLQMNSLKPEDTAVYYCAKFGRKIVGATELDYWGQGTLVTVSS
B15: variant 6-45 (Fc fusion)
VHH: EVQLVESGGGLVQPGGSLRLSCAASGNMFSINAMGWFRQAPGKEREFVTLISWSSGRTSYADSVKGRFTISADNSKNTAYLQMNSLKPEDTAVYYCASLGYCSGGSCFDYWGQGTLVTVSS
B16: variant 6-99 (Fc fusion)
VHH: EVQLVESGGGLVQPGGSLRLSCAASGIPFRSRTMGWFRQAPGKEREFVAGISRSGASTAYADSVKGRFTISADNSKNTAYLQMNSLKPEDTAVYYCTHANDYGDYWGQGTLVTVSS
B17: variant 6-112 (Fc fusion)
VHH: EVQLVESGGGLVQPGGSLRLSCAASGGTFSAYHMGWFRQAPGKERELVTIIDNGGPTSYADSVKGRFTISADNSKNTAYLQMNSLKPEDTAVYYCTALLYYFDNSGYNFDPFDIWGQGTLVTGSS
B18: variant 6-95 (Fc fusion)
VHH: EVQLVESGGGLVQPGGSLRLSCAASGIPSSIRAMGWFRQAPGKEREFVAVIRWTGGSTYYADSVKGRFTISADNSKNTAYLQMNSLKPEDTAVYYCARDIGYYDSSGYYNDGGFDYWGQGTLVTVSS
B19: variant 6-84 (Fc fusion)
VHH: EVQLVESGGGLVQPGGSLRLSCAASGFTPDDYAMGWFRQAPGKEREFVAAINSGGSYTYYADSVKGRFTISADNSKNTAYLQMNSLKPEDTAVYYCARDRGPWGQGTLVTVSS
B20: variant 6-106 (Fc fusion)
VHH: EVQLVESGGGLVQPGGSLRLSCAASGIPSTLRAMGWFRQAPGKEREFVAATSWSGGSKYYADSVKGRFTISADNSKNTAYLQMNSLKPEDTAVYYCATDLYYMDVWGQGTLVTVSS
B21: variant 6-102 (Fc fusion)
VHH: EVQLVESGGGLVQPGGSLRLSCAASGSSFSAYAMGWFRQAPGKEREFVSAIDSEGTTTYADSVKGRFTISADNSKNTAYLQMNSLKPEDTAVYYCAGDYNFWSGFDHWGQGTLVTVSS
B22: variant 6-108 (Fc fusion)
VHH: EVQLVESGGGLVQPGGSLRLSCAASGGTFGSYGMGWFRQAPGKEREFVAAIRWSGGITYYADSVKGRFTISADNSKNTAYLQMNSLKPEDTAVYYCARERYWNPLPYYYYGMDVWGQGTLVTVSS
B23: variant 6-97 (Fc fusion)
VHH: EVQLVESGGGLVQPGGSLRLSCAASGFTFSSLAMGWFRQAPGKEREFVAAITWSGDITNYADSVKGRFTITADNSKNTAYLQMNSLKPEDTAVYYCLRLSSSGFDHWGQGTLVTVSS
B24: variant 6-103 (Fc fusion)
VHH: EVQLVESGGGLVQPGGSLRLSCAASGRTSSPIAMGWFRQAPGKEREPVAVRWSDDYTYYADSVKGRFTISADNSKNTAYLQMNSLKPEDTAVYYCAKKLGGYYAFDIWGQGTLVTVSS
B25: variant 6-90 (Fc fusion)
VHH: EVQLVESGGGLVQPGGSLRLSCAASGFPFSIWPMGWFRQAPGKEREFVAAVRWSSTYYADSVKGRFTISADNSKNTAYLQMNSLKPEDTAVYYCATGECDGGSCSLAYWGQGTLVTVSS

These binders were tested against CV S-protein construct 6 trimer TP31001F (SARS-CoV-2, UniProt P0DTC2 14-1208) (assay: SPR).
With B1 the Kd was 0.9 nM. In the case of B2, the Kd is reported as 7.8 nM. For B3, the Kd was 0.1 nM. Binder B4 has a Kd of 0.07 nM. B5 showed a Kd of 3.5 nM. With B6 the Kd was 0.1 nM. In the case of B7, the Kd is reported as 67.7 nM. With B8 the Kd was 0.7 nM. Work on B9 yielded a Kd of 0.4 nM. In the case of B10, the Kd is reported as 0.6 nM. B11 showed a Kd of 1.1 nM. B12 gave a Kd of 1.9 nM. For B13, the Kd was 0.4 nM. B14 gave a Kd of 0.4 nM. Work on B15 yielded a Kd of 1.3 nM.

Target: CV S-protein construct 6 trimer TP31001F (SARS-CoV-2, UniProt P0DTC2 14-1208)
Assay: SPR
Remark: another data set of the same source
Work on B16 yielded a Kd of 3.4 nM. Work on B17 yielded a Kd of 43.8 nM. In the case of B18, the Kd is reported as 7.6 nM. Work on B19 yielded a Kd of 0.7 nM. In the case of B20, the Kd is reported as 1070 nM. B21 gave a Kd of 0.9 nM. With B22 the Kd was 0.3 nM. B23 showed a Kd of 57.9 nM. B24 showed a Kd of 1 nM. B25 gave a Kd of 17.1 nM.
